Read-outs that look alike come from different tables or passages of the source.
T1: BKV serotype I infectious virus (VP1) (BK virus serotype I, UniProt P03088 1-362)
T1 sequence (looked up): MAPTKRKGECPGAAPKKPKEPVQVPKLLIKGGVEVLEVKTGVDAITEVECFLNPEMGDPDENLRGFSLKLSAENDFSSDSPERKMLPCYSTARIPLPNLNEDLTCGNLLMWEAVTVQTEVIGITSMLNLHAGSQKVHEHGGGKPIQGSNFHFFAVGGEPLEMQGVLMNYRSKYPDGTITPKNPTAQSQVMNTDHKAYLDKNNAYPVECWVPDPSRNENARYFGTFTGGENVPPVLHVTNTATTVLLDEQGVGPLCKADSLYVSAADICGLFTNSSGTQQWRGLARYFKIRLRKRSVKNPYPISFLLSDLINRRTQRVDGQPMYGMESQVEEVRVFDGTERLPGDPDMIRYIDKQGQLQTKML


What was measured:
[1] = target: T1, BKV serotype I infectious virus (VP1); test: cell-based or functional assay
[2] = target: T2, BKV serotype III chimeric infectious virus (VP1 of isolate AS) (BK virus serotype III); test: cell-based or functional assay
[3] = target: T3, JCV infectious virus, isolates Mad-1 and Mad-4 (VP1) (JC virus); test: cell-based or functional assay
[4] = target: T1, BKV serotype I infectious virus (VP1); test: cell-based or functional assay; remark: listed apart in the source
[5] = target: T4, BKV serotype IV chimeric infectious virus (VP1 of strain ITA-4) (BK virus serotype IV); test: cell-based or functional assay
[6] = target: T5, BKV serotype II chimeric infectious virus (VP1 of isolate SB) (BK virus serotype II); test: cell-based or functional assay
[7] = target: T2, BKV serotype III chimeric infectious …; test: cell-based or functional assay; remark: listed apart in the source
[8] = target: T1, BKV serotype I infectious virus (VP1); test: cell-based or functional assay; remark: listed apart in the source
[9] = target: T4, BKV serotype IV chimeric infectious …; test: cell-based or functional assay; remark: listed apart in the source
[10] = target: T5, BKV serotype II chimeric infectious …; test: cell-based or functional assay; remark: listed apart in the source
[11] = target: T3, JCV infectious virus, isolates Mad-1 …; test: cell-based or functional assay; remark: listed apart in the source
JCV VLP (consensus) [12] = target: T6, JCV VLP (consensus) (JC virus, UniProt P03089 1-354); test: ELISA on plates coated with JCV VLPs, OD 450 nm
T6 construct: also called JCV VLPs; JC virus VLPs

JCV VLP (consensus) [13] = target: T6, JCV VLP (consensus); test: ELISA on coated JCV VLPs

Binder	neutralization EC50 [1] [µg/mL]	neutralization EC90 [1] [µg/mL]	neutralization EC50 [2] [µg/mL]	neutralization EC90 [2] [µg/mL]	neutralization EC50 [3] [µg/mL]	neutralization EC90 [3] [µg/mL]	neutralization EC50 [4] [µg/mL]	neutralization EC90 [4] [µg/mL]	neutralization EC50 [5] [µg/mL]	neutralization EC90 [5] [µg/mL]	neutralization EC50 [6] [µg/mL]	neutralization EC90 [6] [µg/mL]	other results
2081-66-5 (antibody, V domains shown) VH: QVQLQQSGPELVKPGASVRISCKVSGFTFSNSWMNWVKQRPGQGLEWIGRIYPGDGDTQYNEKFKGKATLTADTSSNTAYIQLNSLTSVDSAVFFCARSRSGLDYWGQGTTLTVSS VL: DIQMTQSTSSLSASLGDRVTISCRASQDIYNYLNWFQQKPDGTVKPLIYSTSRLHSGVSSRFSGSGSGTDYSLTISNLEREDIATYFCHQSHTVPFTFGSGTKLEIK	0.041	0.601											
NEG447 (antibody, human IgG1, lambda, V domains shown) VH: QVQLQESGPGLVKPSETLSLTCTVSGGSISRDYWSWVRQPPGAGLEWIGNIYYSGSTNYNPSLKSRVTISVATNKKQFSLKLTSVTAADTAVYYCARVPGCSSTSCIDGWFDPWGQGILVTVSS VL: QSVLTQPPSLSAAPGQKVTISCSGSSSNIGNTYVSWYQQLPGTAPKLLIYDNNKRPSGIPDRFSGSKSGTSATLGITGLQTGDEAVYYCGTWDSSLSAWVFGGGTRLTVLG			> 100	> 100	> 100	> 100	0.004	0.27	0.012	0.34	0.024	6.72	
P165E2 (antibody, human IgG1, lambda, V domains shown) VH: QVQLQESGPGLVKPSETLSLTCTVSGGSISRDYWTWVRQPPGEGLEWIGNIYYSGSTNYNPSLKSRVTISVAASKKQFSLKLTSVTAADTAVYYCARVPGCSSTSCIDGWFDPWGQGILVTVSS VL: QSVLTQPPSLSAAPGQRVTISCSGSSSNIGNTYVSWYQQLPGTAPKLLIYDNNKRPSGIPGRFSGSKSGTSATLGITGLQTGDEAAYYCGTWDSSLSAWVFGGGTRLTVLG			> 100	> 100	> 100	> 100	0.009	0.37	0.012	0.46	0.081	7.98	
P7G11A (antibody, human IgG1, lambda, V domains shown) VH: QVQLQESGPGLVKPSQTLSLTCTVSGGSISSGGYSWSWIRQPPGKGLEYIGYIYYRGTTYYNPSLKSRVTISVDTSNNQISLKLSSVTAADTAVYYCARALTHLVGVGWFDPWGQGTMVTVSS VL: QSVLTQPPSVSAAPGQKVTISCSGGSSNLGSNYVSWYQQLPGTAPKLLIYDNNKRPSGIPDRFSGSKSGTSATLGITGLQTGDEADYYCGTWDGSLSAWVFGGGTKVTVLG			> 100	> 100	> 100	> 100	0.0008	0.34	0.015	0.53	0.074	2.89	
P7G11 (antibody, human IgG1, lambda, V domains shown) VH: QVQLQESGPGLAKPSQTLSLTCSVSGGSISSGGYSWSWIRQPPGKGLEYIGYIYYRGTTYYNPSLKSRITMSVDTSNNQISLKLTSVTAADTAVYYCARALTHLVGVGWFDPWGQGTMVTVSS VL: QSVLTQPPSVSAAPGQKVTISCSGGSSNLGSNYVSWYQQLPGTAPKLLIYDNNKRPSGIPDRFSGSKSGTSATLGITGLQTGDEADYYCGTWDGSLSAWVFGGGTKVTVLG			> 100	> 100	> 100	> 100	0.007	0.37	0.011	0.48	0.187	1.79	
2075-16-1 (antibody, V domains shown) VH: QVQLQQPGSELVRPGASVKLSCKASGYTFTNYWMHWVKQGHGQGLEWIGNIYPGSGNTNYGENFKSKGTLTVDTSSSTAYMHLSRLTSEDSAVYYCSRSAIYYGYDGHYFAMDYWGQGTSVTVSS VL: DIQMTQSPSSLSASLGGKVTITCKASQDIRKYIAWYQHKPGKGPRLLINYTSTLQSGIPSRFRGSGSGRDYSFSISNLEPEDIATYYCLQYDNILFTFGTGTKLEIK	0.065	1.25											
EBB-C1975-B5 (antibody, human IgG1, kappa, V domains shown) VH: QVQLVQSGPGLVKPSETLSLTCTVSGGSTSAYYWTWIRQPPGKGLEWIGYISHSGSTNYNPSLKSRVTISADTSKNQLSLKVNSVTAADTAVYYCARLGDTASLSRFYYYIDVWGKGTTVTVSS VL: EIVMTQSPDTLSLSPGERATLSCRASQSVSSNYLAWYQQKPGEAPRLLIYGASSRATGIPDRFSGSGSGTDFTLTISRLEPEDFAVYYCQQYGSSPPYTFGQGTRLEIKR													neutralization EC50 [7]: 0.76 µg/mL; neutralization EC90 [7]: > 100 µg/mL; neutralization EC50 [8]: 0.033 µg/mL; neutralization EC90 [8]: 5.53 µg/mL; neutralization EC50 [9]: 0.15 µg/mL; neutralization EC90 [9]: 7.83 µg/mL; neutralization EC50 [10]: 0.42 µg/mL; neutralization EC90 [10]: 24.2 µg/mL
2075-456-4 (antibody, V domains shown) VH: QVHLQQSGPELVKPGASVTISCKTSGYSFSSCWMNWVKQRPGQGLEWIGRIYPGDGDTKYTEKFKDKATLTADKSSSTAYMQLSSLTSVDSALYFCAISGSGLPYWGQGTLVTVSE VL: DIQMTQTTSSLSASLGDRVTISCRASQDIHNYLNWYQQKPDGTIKLLIYSTSRLHSGVPSRFSGSGSGTHYSLTINNLEQEDIATYFCQQTHTLPLTFGAGTKLELK	0.092	0.503											
2077-4-1 (antibody, V domains shown) VH: EVQLQQSGPELVKPGASMKISCKASGYSFTGYTMNWVKQSHGENLEWIGLFNPYNGGTRYNQKFKGKATLTVDKSSSTAYMELLSLTSEDSAVYYCARLRNYGIGDDFFDYWGQGTTLTVSS VL: DIVMTQSHKFMSTSVGDRVSITCKASQDVGTAVAWYQQKPGQSPKLLIYWASTRHTGVPDRFTGSGSGTDFTLTISNVQSEDLTDYFCQQYSNYPYTFGGGTKLEIK													neutralization EC50 [11]: 0.138 µg/mL; neutralization EC90 [11]: 3.06 µg/mL; EC50 (read off the curve) (JCV VLP (consensus) [12]): ~0.03 nM; IC50 (JCV VLP (consensus) [13]): 0.034 nM
2081-38-5 (antibody, V domains shown) VH: QVQLQQSGPELVKPGASVKISCKASGYTFSSSWINWVKQRPGQGLEWIGRIYPGDGDTNYNGKFKGKATLTADKSSSTVDMHLSSLTYVDSAVYFCAIHSSGFPHWGQGTLVTVSA VL: DIQMTQTTSSLSASLGGRVTISCRTSQDISDYLNWYQQKPDGAVKLLIYYTSRLHSGVPSRFSGSGSGTDYSLTISNLEQEDIATYFCQQTNTLPFTFGGGTKLEIK	0.053	1.8											
2081-25-6 (antibody, V domains shown) VH: QVQLQQSGAELVRPGSSVKISCKASGYAFSRYWMNWVKQRPGQGLEWIGQIYPGDGDTKYNGKFKDTATLTADKSSSTAYLQLSSLTSEDSAVYFCAKYGNYGMDYWGQGTSVTVSS VL: DAVMTQTPLSLPVSLGDQASISCRSSQSLEYGNGNTYLNWYLQKPGQSPQLLIYRVSNRFSGVLDRFSGSGSGTDFTLKISRVEAEDLGVYFCLQFTHVPYTFGGGTKLEIK	0.213	0.723											
EBB-C1975-A3 (antibody, V domains shown) VH: EVQLVETGGGLVQPGGSLRLSCAASGFTVRRNYMSWVRQAPGKGLEWVSGIYSGGSTYYADSVKGRFTISRDYSKNTLSLQMNTLRVEDTAVYFCAREDEFWSGYSAGVDWGQGTLVTVSS VL: not shown													neutralization EC50 [7]: > 100 µg/mL; neutralization EC90 [7]: > 100 µg/mL; neutralization EC50 [8]: 0.045 µg/mL; neutralization EC90 [8]: 4.84 µg/mL; neutralization EC50 [9]: 0.13 µg/mL; neutralization EC90 [9]: 8.18 µg/mL; neutralization EC50 [10]: 0.12 µg/mL; neutralization EC90 [10]: 25.2 µg/mL
EBB-C1975-E7 (antibody, human IgG1, kappa, V domains shown) VH: EVQLLESGGGLVRPGGSLRVSCAASGFTVSRNYMSWVRQAPGKGLEWVSGIYGGGRTYYAESVKGRFTISRDYSKNTLFLQMNTLRVEDTALYFCAREDEFWSGYSAGVDWGQGTLVTVSS VL: DIQVTQSPSSLSASVGDRVTITCRASQSISSYLNWYQQEPGKAPKLLIYAASTLQTGVPSRFSGSGSGTDFTLTISSLQPEDFATYYCQQSYNTPRTFGQGTKVEIKR													neutralization EC50 [7]: > 100 µg/mL; neutralization EC90 [7]: > 100 µg/mL; neutralization EC50 [8]: 0.01 µg/mL; neutralization EC90 [8]: 2.62 µg/mL; neutralization EC50 [9]: 0.35 µg/mL; neutralization EC90 [9]: 8.61 µg/mL; neutralization EC50 [10]: 0.33 µg/mL; neutralization EC90 [10]: 9.61 µg/mL
